PMC10397247

What was measured:
Test in all cases: two-hybrid library CCNG1;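 also: natural log of median RNA to DNA barcode read ratio; higher means stronger binding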
4H348-bA = molecular target: T1, 4H348-bA
T1 chain: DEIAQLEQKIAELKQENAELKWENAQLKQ

4H2717-bA = molecular target: T2, 4H2717-bA
T2 chain: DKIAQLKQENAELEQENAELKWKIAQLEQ

4H319-bA = molecular target: T3, 4H319-bA
T3 chain: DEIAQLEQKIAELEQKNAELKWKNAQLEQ

4H2223-bA = molecular target: T4, 4H2223-bA
T4 chain: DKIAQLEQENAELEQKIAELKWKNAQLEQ

4H3057-bA = molecular target: T5, 4H3057-bA
T5 chain: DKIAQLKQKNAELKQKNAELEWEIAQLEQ

4H182-bA = molecular target: T6, 4H182-bA
T6 chain: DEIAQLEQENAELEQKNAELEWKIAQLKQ

4H477-bA = molecular target: T7, 4H477-bA
T7 chain: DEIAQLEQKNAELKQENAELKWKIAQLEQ

4H40-bA = molecular target: T8, 4H40-bA
T8 chain: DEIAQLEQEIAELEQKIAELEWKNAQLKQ

4H2503-bA = molecular target: T9, 4H2503-bA
T9 chain: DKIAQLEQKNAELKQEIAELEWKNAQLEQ

4H3277-bA = molecular target: T10, 4H3277-bA
T10 chain: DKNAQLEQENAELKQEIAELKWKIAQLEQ

4H2438-bA = molecular target: T11, 4H2438-bA
T11 chain: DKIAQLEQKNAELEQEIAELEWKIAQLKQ

4H741-bA = molecular target: T12, 4H741-bA
T12 chain: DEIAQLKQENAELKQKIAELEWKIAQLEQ

4H2915-bA = molecular target: T13, 4H2915-bA
T13 chain: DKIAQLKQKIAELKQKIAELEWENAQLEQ

4H2588-bA = molecular target: T14, 4H2588-bA
T14 chain: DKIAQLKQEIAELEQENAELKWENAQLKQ

4H2134-bA = molecular target: T15, 4H2134-bA
T15 chain: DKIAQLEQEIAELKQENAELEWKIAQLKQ

4H2839-bA = molecular target: T16, 4H2839-bA
T16 chain: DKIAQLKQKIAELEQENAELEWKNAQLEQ

4H492-bA = molecular target: T17, 4H492-bA
T17 chain: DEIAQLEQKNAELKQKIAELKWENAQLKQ

4H2473-bA = molecular target: T18, 4H2473-bA
T18 chain: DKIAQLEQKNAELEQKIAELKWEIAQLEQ

4H2692-bA = molecular target: T19, 4H2692-bA
T19 chain: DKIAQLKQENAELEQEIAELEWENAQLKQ

4H2143-bA = molecular target: T20, 4H2143-bA
T20 chain: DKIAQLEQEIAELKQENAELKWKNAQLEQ

interaction score (4H348-bA): -1.35
interaction score (4H2717-bA): 0.261
interaction score (4H319-bA): -0.41
interaction score (4H2223-bA): -0.693
interaction score (4H3057-bA): 2.13
interaction score (4H182-bA): -0.0793
interaction score (4H477-bA): -0.804
interaction score (4H40-bA): -1.06
interaction score (4H2503-bA): -0.357
interaction score (4H3277-bA): -0.0929
interaction score (4H2438-bA): -0.622
interaction score (4H741-bA): -0.573
interaction score (4H2915-bA): 0.668
interaction score (4H2588-bA): 0.365
interaction score (4H2134-bA): -0.497
interaction score (4H2839-bA): 0.49
interaction score (4H492-bA): -0.651
interaction score (4H2473-bA): -0.132
interaction score (4H2692-bA): 0.136
interaction score (4H2143-bA): -0.647
B1: 4H182-bA (peptide)
chain: DEIAQLEQENAELEQKNAELEWKIAQLKQ
